Paper PMC3538890 (Traffic (Copenhagen, Denmark), 2012)

T1: CFP-GS27 (UniProt O14653 1-212)
T1 sequence (looked up): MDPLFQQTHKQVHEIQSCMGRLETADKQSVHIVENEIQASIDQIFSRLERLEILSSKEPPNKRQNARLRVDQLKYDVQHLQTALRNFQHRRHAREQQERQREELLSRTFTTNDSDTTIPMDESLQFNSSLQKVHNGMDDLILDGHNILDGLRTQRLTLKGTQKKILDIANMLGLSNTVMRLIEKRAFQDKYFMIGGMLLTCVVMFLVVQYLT

B1: COG6-myc with deletion of residues 76-112 (natural protein, human, UniProt Q9Y2V7 1-657, looked up)
chain: MAEGSGEVVAVSATGAANGLNNGAGGTSATTCNPLSRKLHKILETRLDNDKEMLEALKALSTFFVENSLRTRRNLNCCQDMTSRLQAAKEQTQDLIVKTTKLQSESQKLEIRAQVADAFLSKFQLTSDEMSLLRGTREGPITEDFFKALGRVKQIHNDVKVLLRTNQQTAGLEIMEQMALLQETAYERLYRWAQSECRTLTQESCDVSPVLTQAMEALQDRPVLYKYTLDEFGTARRSTVVRGFIDALTRGGPGGTPRPIEMHSHDPLRYVGDMLAWLHQATASEKEHLEALLKHVTTQGVEENIQEVVGHITEGVCRPLKVRIEQVIVAEPGAVLLYKISNLLKFYHHTISGIVGNSATALLTTIEEMHLLSKKIFFNSLSLHASKLMDKVELPPPDLGPSSALNQTLMLLREVLASHDSSVVPLDARQADFVQVLSCVLDPLLQMCTVSASNLGTADMATFMVNSLYMMKTTLALFEFTDRRLEMLQFQIEAHLDTLINEQASYVLTRVGLSYIYNTVQQHKPEQGSLANMPNLDSVTLKAAMVQFDRYLSAPDNLLIPQLNFLLSATVKEQIVKQSTELVCRAYGEVYAAVMNPINEYKDPENILHRSPQQVQTLLS
B2: COG6-myc with deletion of residues 112-150 (natural protein, human, UniProt Q9Y2V7 1-657, looked up)
chain: MAEGSGEVVAVSATGAANGLNNGAGGTSATTCNPLSRKLHKILETRLDNDKEMLEALKALSTFFVENSLRTRRNLRGDIERKSLAINEEFVSIFKEVKEELESISEDVQAMQVADAFLSKFQLTSDEMSLLRGTREGPITEDFFKALGRVKQIHNDVKVLLRTNQQTAGLEIMEQMALLQETAYERLYRWAQSECRTLTQESCDVSPVLTQAMEALQDRPVLYKYTLDEFGTARRSTVVRGFIDALTRGGPGGTPRPIEMHSHDPLRYVGDMLAWLHQATASEKEHLEALLKHVTTQGVEENIQEVVGHITEGVCRPLKVRIEQVIVAEPGAVLLYKISNLLKFYHHTISGIVGNSATALLTTIEEMHLLSKKIFFNSLSLHASKLMDKVELPPPDLGPSSALNQTLMLLREVLASHDSSVVPLDARQADFVQVLSCVLDPLLQMCTVSASNLGTADMATFMVNSLYMMKTTLALFEFTDRRLEMLQFQIEAHLDTLINEQASYVLTRVGLSYIYNTVQQHKPEQGSLANMPNLDSVTLKAAMVQFDRYLSAPDNLLIPQLNFLLSATVKEQIVKQSTELVCRAYGEVYAAVMNPINEYKDPENILHRSPQQVQTLLS

Biological target: T1, CFP-GS27
Assay: co-IP

Binder	fold reduction of co-IP against full length COG6-myc [fold]
B1	~7
B2	~7
